Laboratory results from PMC6346018 (Scientific Reports, 2019).

What was measured:
[1] = target: T1, light-activated and phosphorylated rhodopsin in rod outer segment membranes (P-ROS*) (UniProt P02699 1-348, phosphorylated by endogenous GRK1: mixture of species with up to seven phosphate groups per molecule, sites not stated); assay: pull-down; 1.5 µg purified arrestin-1-mCherry and 15 µg (rhod-)opsin in native ROS membranes, 50 µl, 100 mM Hepes pH 7.0, 100 mM NaCl, 1 mM DTT, 0.1 mM EDTA; P-ROS* and ROS* illuminated 2.5 min (495 nm long-pass), others kept dark; centrifuged at 4 °C, pellet washed, mCherry fluorescence; details: one partner purified
T1 construct: rhodopsin, endogenous in native rod outer segment (ROS) disc membranes (isolated membranes, not whole cells); also called ROS-P*; source: rod outer segment disc membranes isolated from native source; phosphorylated by endogenously available GRK1; illuminated
T1 sequence (P02699 whole entry): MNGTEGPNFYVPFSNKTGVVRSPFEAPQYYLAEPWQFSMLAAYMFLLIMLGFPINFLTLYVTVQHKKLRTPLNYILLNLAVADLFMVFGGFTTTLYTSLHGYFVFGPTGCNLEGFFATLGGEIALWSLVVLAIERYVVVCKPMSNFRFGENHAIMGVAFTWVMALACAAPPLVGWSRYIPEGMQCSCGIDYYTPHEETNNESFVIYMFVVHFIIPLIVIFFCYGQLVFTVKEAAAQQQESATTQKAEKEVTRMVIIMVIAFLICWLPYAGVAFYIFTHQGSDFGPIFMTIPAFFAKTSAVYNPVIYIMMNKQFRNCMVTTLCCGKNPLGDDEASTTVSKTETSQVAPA

[2] = target: T1, light-activated and phosphorylated …; assay: pull-down; cleared bacterial lysate with arrestin-mCherry mixed with ROS-P* membranes; 10 mM Hepes pH 7.0, 1 mM DTT, 1 mM MgCl2, 0.1 mM EDTA, NaCl from 100 mM to 3.949 M; 37 °C, 5 min incubation, light activated 6 min; membranes pelleted, washed, mCherry fluorescence of the pellet; IC50 of NaCl for complex formation; details: partners not purified
[3] = target: T1, light-activated and phosphorylated …; assay: as above; details: partners not purified; remark: listed apart in the source

B1: arrestin-1-mCherry-Strep-tag double mutant T304A + F375A, HEK293-expressed and purified (natural protein, bovine, UniProt P08168 1-404, looked up)
chain: MKANKPAPNHVIFKKISRDKSVTIYLGKRDYIDHVERVEPVDGVVLVDPELVKGKRVYVSLTCAFRYGQEDIDVMGLSFRRDLYFSQVQVFPPVGASGATTRLQESLIKKLGANTYPFLLTFPDYLPCSVMLQPAPQDVGKSCGVDFEIKAFATHSTDVEEDKIPKKSSVRLLIRKVQHAPRDMGPQPRAEASWQFFMSDKPLRLAVSLSKEIYYHGEPIPVTVAVTNSTEKTVKKIKVLVEQVTNVVLYSSDYYIKTVAAEEAQEKVPPNSSLTKTLTLVPLLANNRERRGIALDGKIKHEDANLASSTIIKEGIDKTVMGILVSYQIKVKLTVSGLLGELTSSEVATEVPFRLMHPQPEDPDTAKESFQDENAVFEEFARQNLKDAGEYKEEKTDQEAAMDE
notes: arrestin-1 (visual arrestin), bovine, UniProt P08168; also called T304A + F375A double mutant; source: HEK293, transiently transfected (pcDNA3.1), one-step purified (Strep-Tactin); not shown: mCherry, C-terminal, kept
B1 was tested, and the “activity level relative to WT” value [1] was 106%.

B2: arrestin-1-mCherry double mutant T304A + F375A, bacterial lysate (natural protein, bovine, UniProt P08168 1-404, looked up)
chain: MKANKPAPNHVIFKKISRDKSVTIYLGKRDYIDHVERVEPVDGVVLVDPELVKGKRVYVSLTCAFRYGQEDIDVMGLSFRRDLYFSQVQVFPPVGASGATTRLQESLIKKLGANTYPFLLTFPDYLPCSVMLQPAPQDVGKSCGVDFEIKAFATHSTDVEEDKIPKKSSVRLLIRKVQHAPRDMGPQPRAEASWQFFMSDKPLRLAVSLSKEIYYHGEPIPVTVAVTNSTEKTVKKIKVLVEQVTNVVLYSSDYYIKTVAAEEAQEKVPPNSSLTKTLTLVPLLANNRERRGIALDGKIKHEDANLASSTIIKEGIDKTVMGILVSYQIKVKLTVSGLLGELTSSEVATEVPFRLMHPQPEDPDTAKESFQDENAVFEEFARQNLKDAGEYKEEKTDQEAAMDE
notes: arrestin-1 (visual arrestin), bovine, UniProt P08168; not shown: mCherry, C-terminal, kept
B2 was tested, and the “IC50 of NaCl relative to WT” value [2] was 502% and the “IC50 of NaCl for complex formation” value [3] was 1.51 M.
